Positions count from the first letter of the chain named. In names and notes the source's numbering stands.
Key:
[1] = molecular target: T1, human TMEFF1 extracellular domain recombinant protein (plasmid BBP377, S40-V330, C-terminal 8xHis) (human, UniProt Q8IYR6 40-330); assay: BLI (Octet Red), antibody on Protein A biosensor, recombinant hTMEFF1 ECD as analyte
T1 construct: Secreted from CHO cells with a non-native signal peptide (not part of the mature protein); also called hTMEFF1 ECD; hTMEFF1-ECD
T1 sequence: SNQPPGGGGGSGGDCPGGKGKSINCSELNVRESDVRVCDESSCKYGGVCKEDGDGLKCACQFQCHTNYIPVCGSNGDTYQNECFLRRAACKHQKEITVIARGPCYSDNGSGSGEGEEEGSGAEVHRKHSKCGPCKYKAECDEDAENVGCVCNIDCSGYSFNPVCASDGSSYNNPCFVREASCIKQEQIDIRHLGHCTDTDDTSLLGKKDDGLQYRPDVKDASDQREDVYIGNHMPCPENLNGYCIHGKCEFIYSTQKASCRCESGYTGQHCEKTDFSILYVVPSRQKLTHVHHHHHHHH
Method: (§1) The affinity of antibodies to various recombinant TMEFF1 protein was determined on an Octet Red™ instrument. After loading reagents into a 96-well plate, the Octet Red™ with Protein A-conjugated biosensors was programmed as follows: 30 seconds for baseline #1; 120 seconds to immobilize the antibody; 30 seconds for baseline #2; 300 seconds for association of antibody to recombinant TMEFF1; and 300-600 seconds for dissociation of recombinant TMEFF1 from the antibody.
Affinity of thirteen antibodies was calculated using hTMEFF1 ECD recombinant protein by Octet™.

[2] = molecular target: T2, Macaca fascicularis TMEFF1 extracellular domain recombinant protein (plasmid BBP480, S40-V330, C-terminal … (Macaca fascicularis)); assay: BLI (Octet Red), antibody on Protein A biosensor, recombinant cyTMEFF1 ECD as analyte
T2 construct: range 40-330; also called cyTMEFF1 ECD; monkey TMEFF1 ectodomain
Method: as §1
Affinity of 7 antibodies was calculated using cyTMEFF1 ECD recombinant protein by Octet™.

[3] = molecular target: T1, human TMEFF1 extracellular domain …; assay: BLI (Octet Red), His-tagged TMEFF1 ECD and deletion mutants on anti-Penta-His biosensors, unpurified recombinant antibody
Method: TMEFF1 recombinant proteins expressing 3 different deletion mutants, AFS1 (AFollistatin Domain 1), AFS2 (AFollistatin Domain 2) or AFS1&FS2 were used to identify binding domains among different antibodes using an Octet Red instrument with Anti-Penta-His (HIS 1K) biosensors. […] 100 ngs of purified TMEFF1 ECD was run along with unpurified supernatant of transfected CHO cells with the different deletion mutants. HIS 1K biosensors were loaded by submerging the biosensors into wells containing 10 ug/ml of full length TMEFF1 or one of 3 different deletion mutants (AFS1, AFS2 or AFS1&FS2) for 60 seconds. Following the loading step, the biosensors were then dipped for 30 seconds in PBS before immersion for 30 seconds in 200 ul of unpurified recombinant antibodies for 30 seconds. The biosensors were then dipped briefly (30 seconds) in PBS to observe any dissociation. […] Differential binding to the deletion mutants allowed for determination of binding sites on TMEFF1 recombinant protein. For cases where the antibody bound all 3 recombinant proteins, the binding is outside of the deleted domains.
26 of the identified antibodies were checked for epitope domain binding by Octet™ using the hTMEFF1-ECD recombinant deletion mutants (see Table 7, below).

B1: 27G5_56A2 (antibody, V domains shown)
VH: QVQLQESGPGLVKPSETLSLTCAVSDYSISSGYYWGWIRQPPGKGLEWIGSIYHSGSTYYNPSLKSRVTISVDMSKNQFSLKLSSVTAADTAVYYCARDRDSVSWNGGRDYYYYGMDVWGQGTTVTVSS
VL: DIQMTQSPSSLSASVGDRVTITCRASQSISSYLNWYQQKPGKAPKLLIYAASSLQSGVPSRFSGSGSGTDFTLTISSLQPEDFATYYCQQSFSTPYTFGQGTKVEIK
In the case of B1, the Kd [1] is reported as 69 nM.

B2: 31B7 (antibody, human IgG1, V domains shown)
VH: QVQLVESGGGVVQPGRSLRLSCAASGFTFSSYGMHWVRQAPGKGLEWVAVIWYNGINKYYADSVKGRFTISRDASKNTLYLQMNSLRAEDTAVYYCAREGLLWFGGMDVWGQGTTVTVSS
VL: EIVLTQSPLSLPVTPGEPASISCRSSQSLLHSNGYNYLHWYLQKPGQSPQLLIYLGSNRASGVPDRFSGSRSGTDFTLKIIRVEAEDVGVYYCMQALQTPYTFGQGTKLEIK
Work on B2 yielded a Kd [1] of 43 nM and a Kd [2] of 101 nM.

B3: 34E1_56A4 (antibody, human IgG1, V domains shown)
VH: B2 VH with F27L, S31R, G33A, N54D, I56S, A74T
VL: B2 VL with E1D, R71G, I81S, V90L
B3 showed a Kd [1] of 98 nM.

B4: 6C11 (antibody, human IgG1, V domains shown)
VH: QVQLQQSGPGLVKPSQTLSLTCAISGDSVSSNSAAWNWIRQSPSRGLEWLGRTYYRSKWYNDYPVSVKSRITINPDTSKNQVSLQLNPVTPEDTAVYYCTREQGYSSSRYYYYYGMDVWGQGTTVTVSS
VL: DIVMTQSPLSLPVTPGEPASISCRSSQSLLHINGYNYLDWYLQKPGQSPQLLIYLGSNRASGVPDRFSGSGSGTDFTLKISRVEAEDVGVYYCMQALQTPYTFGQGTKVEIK
B4: binds [3].

B5: 24F10 (antibody, V domains shown)
VH: QVQLVESGGGVVQPGRSLRLSCAASGFTFSSYGMHWVRQAPGKGLEWVAVIWYDGSDKYYTDSVKGRFTISRDNSKNTLYLQMNSLRAEDTAVYYCARESMVRGIVITFFDYWGQGTLVTVSS
VL: EIVMTQSPATLSVSPGERATLSCRASQSVSSNLAWYQQKPGQAPRLLIYGASTRATGIPARFSGSGSGTEFTLTISSLQSEDFAVYSCQHYNNWPPTFGGGTKVEIK
With B5 the Kd [1] was 50 nM and the Kd [2] was 65 nM.

B6: M10 (antibody, human IgG1, V domains shown)
VH: B5 VH with V11G, S31R, K58E, T61A, S100T, V102G, V106I, T108S, F109Y, L118P
VL: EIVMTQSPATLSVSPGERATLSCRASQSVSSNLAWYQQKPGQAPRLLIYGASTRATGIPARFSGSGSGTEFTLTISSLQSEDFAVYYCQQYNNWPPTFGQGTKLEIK
Work on B6 yielded a Kd [1] of 9 nM and a Kd [2] of 7 nM.

B7: 30C10 (antibody, human IgG1, V domains shown)
VH: B5 VH with T61A, N77K, Y95F, S100T, M101I, V102F, I105L, V106T, Y112H
VL: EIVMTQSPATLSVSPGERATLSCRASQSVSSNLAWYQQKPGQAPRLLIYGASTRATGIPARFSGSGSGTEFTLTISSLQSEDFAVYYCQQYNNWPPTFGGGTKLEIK
B7 showed a Kd [1] of 4 nM and a Kd [2] of 7 nM.

B8: 37G7 (antibody, human IgG1, V domains shown)
VH: QVQLVESGGGVVQPGRSLRLSCAASGFTFTSYGMHWVRQAPGKGLEWVAVVWYEGSSKFYVDSVKGRFIISRDNSKNTLYLQMNSLRAEDTAVYYCARAYCGGDCYPFDYWGQGTLVTVSS
VL: DIQMTQSPSSLSASVGDRVTITCRASQGISNYLAWYQQKPGKVPKLLIYAASTLQSGVPSRFSGSGSGTDFTLTISSLQPEDVATYYCQKYNSAPWTFGQGTKVEIK
B8: binds [3].

B9: M17 (antibody, human IgG1, V domains shown)
VH: QVQLVESGGGVVQPGRSLRLSCAASGFTFRSYGMHWVRQAPGKGLEWVALIWYDGGDQYYADSVKGRFTISRDSSKSTLYLQMNSLRAEDTAVYYCARAQCGDDCYPFDYWGQGTLVTVSS
VL: B8 VL with S30Y, A94D, V104L
B9: binds [3].

B10: 29C4 (antibody, human IgG1, V domains shown)
VH: B8 VH with T30S, S31N, V51I, E54D, S56G, S57P, V61A, I69T, A99S, T115D
VL: B8 VL with N92Y
B10: binds [3].

B11: 35B1 (antibody, human IgG1, V domains shown)
VH: B8 VH with S31T, Y53F, S56N, V61I, Y80F, Y100N, G103A
VL: B8 VL with T72S, Q79R
B11: binds [3].

B12: 34B7 (antibody, human IgG1, V domains shown)
VH: B8 VH with S56N, V61I, G103D
VL: B8 VL with V104L
For B12, the Kd [1] was 20 nM and the Kd [2] was 22 nM.

B13: 43B2_56A6 (antibody, human IgG1, V domains shown)
VH: EVQLLESGGGLVQPGGSLRLSCAASGFTFSSYAMSWVRQAPGKGLEWVSTISGSGDSTYYADSVKGRFTISRDNSKNTLYLQMNSLRAEDTAIYYCAKFGVRGVIITNWFDPWGQGTLVTVSS
VL: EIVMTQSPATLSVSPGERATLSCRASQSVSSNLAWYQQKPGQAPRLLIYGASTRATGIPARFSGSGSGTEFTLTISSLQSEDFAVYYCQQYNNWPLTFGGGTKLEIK
Work on B13 yielded a Kd [1] of 39 nM.

B14: 50B4_56B2 (antibody, human IgG1, V domains shown)
VH: B13 VH with A88V
VL: B5 VL with A43V, S87Y, H90Q, P96L
Binder B14 has a Kd [1] of 52 nM.

B15: 10C10 (antibody, human IgG1, V domains shown)
VH: QVQLVESGGGVVQPGRSLRLSCATSGFTFSIYGMHWVRQAPGKGLEWVAIIWYDGNKKYYADSVKGRFTISRDNSKNTLYLQMNSLRAEDTAVYYCARDPYTSSLDYWGQGTLVTVSS
VL: DIQLTQSPSFLSASVGDRVTITCRASQGISSYLAWYQQKPGKAPKLLIYAASTLQSGVPSRFSGSGSGTEFTLTISSLQPEDFATYYCQQLNSYPLTFGGGTKLEIK
B15: binds [3].

B16: M33F (antibody, human IgG1, V domains shown)
VH: QVQLQESGPGLVKPSETLSLTCAVSGYSISSGYFWGWIRQPPGKKLEWIGSIYHSGSTYYNPSLKSRVTMSVDTSKNQFSLKLSSVTAADTAVYYCAREGDCSGGICYWYFDLWGRGTLVTVSS
VL: B15 VL with L4M, F10S, S31N, A43V, F71V, P80S, T85V, L91Y, S93K, Y94W
B16: binds [3].

B17: M1H1 (antibody, human IgG1, V domains shown)
VH: B16 VH
VL: B8 VL with V83F, T85V, K90Q, S93K, A94W, W96L, Q100G, V104L
B17: binds [3].

B18: 18C2 (antibody, human IgG1, V domains shown)
VH: B15 VH with T24A, K43M, W52R, N56S, K57N, Q82R, Y101F
VL: B15 VL
B18: binds [3].

B19: 19D9 (antibody, human IgG1, V domains shown)
VH: B15 VH with T24A, I50N, N56S, A92S
VL: B15 VL with A50T
B19: binds [3].

B20: 7F12 (antibody, human IgG1, V domains shown)
VH: B15 VH with T24A, N56S, K57D, S103T
VL: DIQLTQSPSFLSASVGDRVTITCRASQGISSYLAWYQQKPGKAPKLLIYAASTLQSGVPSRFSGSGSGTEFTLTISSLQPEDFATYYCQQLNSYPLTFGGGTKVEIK
B20: binds [3].

B21: 11F9 (antibody, human IgG1, V domains shown)
VH: EVQLVESGGGLVKPGGSLRLSCAASGFTFSYAWMSWVRQAPGKGLEWVGRIKSKTDGGTTDYAAPVKGRFTISRDDSKNTLYLQLNSLKIEDTAVYYCTTGRIAAAGFDYWAQGTLVTVSS
VL: DAVVTQESALTTSPGETVTLTCRSSTGTVTTSNYANWVQEKPDHLFTGLIAGTNNRAPGVPARFSGSLIGDKAVLTITGAQTEDEAIYFCALWYSNHWVFGGGTKLTVLG
B21: binds [3].

B22: 3H9 (antibody, human IgG1, V domains shown)
VH: B21 VH with T28V, S35N, D56E, Y62N, D75E, A112G
VL: B21 VL with V74A
B22: binds [3].

— patent US20200109194A1 (BLUEFIN BIOMEDICINE, published 2020)
